Substrate in the data set: COc1ccccc1O
Briefly: purified protein. The data set is classed as biochemical, Sorghum bicolor. Particulars: heme; Ca2+ raises activity.

B1: SK 5912 sorghum peroxidase (cationic class III peroxidase) (Sorghum bicolor) (protein)
chain: ARQPPLAPGLSFDFYKRSCPKAESIVRSFVQDAVRRDVGLAAGLLRLHFHDCFVQGCDASVLLDGSATGPGEQQAPPNLTLRPTAFKAINDIHDRLHKECGGTVVSCSDVLALAARDSVVVSGGPSYKVPLGRRDSASFATQQDVLSGLPPPTAAVPALLAVLSKINLDATDLVALSGGHTIGLGHCTSFEDRLFPRPDPTLNATFAGQLRRTCPAKGTDRRTPLDVRTPNAFDNKYYVNLVNREGLFTSDQDLFSNARTRALVDKFARSQRDFFDQFAFSVVKMGQIKVLTGTQGQIRTNCSARNAAGTTMLPWSVSVVEEAADESLGVF
notes: native enzyme isolated from grain
In the case of B1, the Michaelis constant (Km) came to 1600 ± 400 µM.

What is called Km is the substrate concentration at which the rate is half of its maximum.

The record behind these values is article PMC4771821, “Structural and spectroscopic characterisation of a heme peroxidase from sorghum” (Journal of Biological Inorganic Chemistry, 2015).
